Assay [1] addresses T1, MUC1-ECD (human, UniProt P15941 1098-1155).
T1 construct: also called Ag MUC1-ECD; Antigen MUC1-ECD
T1 sequence: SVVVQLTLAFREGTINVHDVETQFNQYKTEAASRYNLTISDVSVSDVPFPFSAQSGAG
Put plainly: SPR Biacore T200, antibody on chip, MUC1-ECD analyte, 1:1 fit.

The target in assay [2] is T1, MUC1-ECD. Put plainly: SPR (Biacore), 1:1 fit; panel 'GO-702h'; analyte cell empty, antigen at 1.875-60 nM by the legend; same numbers as Table 7 prints for VH5 + VL3. In general terms: SPR reads the build-up and loss of mass on a sensor chip optically.
In another assay the target is T2, WT p58/p62 heterodimer (human, UniProt P15941 1036-1097, limits assumed).
T2 construct: domain: 62 amino acid region (p62) of the SEA domain; Construct limits and tags are not described; also called p62/p58 heterodimer; WT protein
T2 sequence 1: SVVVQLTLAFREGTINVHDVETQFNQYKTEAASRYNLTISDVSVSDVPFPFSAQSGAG
T2 sequence 2: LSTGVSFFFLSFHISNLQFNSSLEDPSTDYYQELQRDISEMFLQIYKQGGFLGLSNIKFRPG
Put plainly: left panel, Absorbance against Concentration (nM). The panel does not name the target. The axis points to the ELISA on WT p58/p62 of the legend, while the legend's first sentence speaks of MFI on HCT116 cells. For orientation: In an ELISA, binding on a coated surface is turned into a signal by an enzyme label.

B1: VH5 + VL2 (antibody, V domains shown)
VH: EVQLVQSGAEVKKPGESLKISCKGSGYAFSNFWMNWVRQMPGKGLEWMGQIYPGDGDTNYNGKFKGQVTISADKSISTAYLQWSSLKASDTAMYYCARSYYRSAWFAYWGQGTLVTVSL
VL: EIVMTQSPATLSVSPGERATLSCRASQSIGTSIHWYQQKPGQAPRLLIYYASESISGIPARFSGSGSGTEFTLTISSLQSEDFAVYYCQQSNNWPLTFGGGTKVEIK
In the case of B1, in the assay with MUC1-ECD [1], binding was characterised by a dissociation constant (Kd) of 2.75 nM; the off-rate (koff) – broadly, the rate constant with which the complex falls apart – was 0.00125 s⁻¹; the on-rate (kon) (commonly a measure of how fast the partners come together) came to 455000 M⁻¹ s⁻¹.

B2: VH1 + VL3 (antibody, V domains shown)
VH: QVQLVQSGAEVKKPGSSVKVSCKASGYAFSNFWMNWVRQAPGQGLEWMGQIYPGDGDTNYNGKFKGRVTITADKSTSTAYMELSSLRSEDTAVYYCARSYYRSAWFAYWGQGTLVTVSS
VL: EIVLTQSPATLSLSPGERATLSCRASQSIGTSIHWYQQKPGQAPRLLIYYASESISGIPARFSGSGSGTDFTLTISSLEPEDFAVYYCQQSNNWPLTFGGGTKVEIK
As for B2, in the assay with MUC1-ECD [1], the Kd (as a rule, a measure of binding affinity in units of concentration) is 5.23 nM; the dissociation rate constant (koff) came out at 0.00222 s⁻¹; the kon is 425000 M⁻¹ s⁻¹.

B3: VH2 + VL3 (antibody, V domains shown)
VH: QVQLVQSGAEVKKPGASVKVSCKASGYAFSNFWMNWVRQAPGQGLEWMGQIYPGDGDTNYNGKFKGRVTMTRDTSTSTVYMELSSLRSEDTAVYYCARSYYRSAWFAYWGQGTLVTVSS
VL: EIVLTQSPATLSLSPGERATLSCRASQSIGTSIHWYQQKPGQAPRLLIYYASESISGIPARFSGSGSGTDFTLTISSLEPEDFAVYYCQQSNNWPLTFGGGTKVEIK
In the case of B3, in the assay with MUC1-ECD [1], the dissociation constant Kd amounted to 3.6 nM, the off-rate (koff) was found to be 0.00145 s⁻¹ and the kon came out at 404000 M⁻¹ s⁻¹.

B4: VH5 + VL3 (antibody, human IgG1, kappa, V domains shown)
VH: EVQLVQSGAEVKKPGESLKISCKGSGFTFNYFWIEWVRQMPGKGLEWMGEILPGTGSTNYNEKFKGQVTISADKSISTAYLQWSSLKASDTAMYYCARYDYTSSMDYWGQGTLVTVSS
VL: EIVLTQSPATLSLSPGERATLSCRASESVQYSGTSLMHWYQQKPGQAPRLLIYGASNVETGIPARFSGSGSGTDFTLTISSLEPEDFAVYYCQQNWKVPWTFGQGTKVEIKR
notes: Full-length humanized IgG expressed in HEK293 and purified on protein A. Constant regions not specified; also called #23 (inferred from 5x5 numbering)
Regarding B4, in the assay with MUC1-ECD [1], the Kd is 1.55 nM, the koff was found to be 0.000844 s⁻¹ and the kon stood at 545000 M⁻¹ s⁻¹.

B5: GO-702h wild-type (antibody)
heavy: not shown
light: EIVLTQSPATLSLSPGERATLSCRASESVQYSGTSLMHWYQQKPGQAPRLLIYGASNVETGIPARFSGSGSGTDFTLTISSLEPEDFAVYYCQQNWKVPWTFGQGTKVEIKRTVAAPSVFIFPPSDEQLKSGTASVVCLLNNFYPREAKVQWKVDNALQSGNSQESVTEQDSKDSTYSLSSTLTLSKADYEKHKVYACEVTHQGLSSPVTKSFNRGEC
notes: copies: 2 + 2
Turning to B5, in the assay with MUC1-ECD [2], the Kd is 1.55 nM, the koff was determined as 0.000844 s⁻¹ and the kon was 545000 M⁻¹ s⁻¹.

B6: GO-702m (antibody, V domains shown)
VH: QVQLQQSGAELMKPGASVKISCKAIGFTFNYFWIEWVKQRPGHGLEWIGEILPGTGSTNYNEKFKGKAIFTADTSSNTAYMQLRSLTSEDSAVYYCVRYDYTSSMDYWGQGTSVTVSS
VL: DIVLTQSPGSLAVSLGQSVTISCRASESVQYSGTSLMHWYQQKPGQPPKLLIYGASNVETGVPARFSGSGSGTDFSLNIHPVEEDDIAMYFCQQNWKVPWTFGGGTKLEIK
notes: Mouse monoclonal antibody, detected with anti-mouse IgG kappa
In the case of B6, in the assay with WT p58/p62 heterodimer, a half-maximal effect (EC50) was put at 0.6 nM.

B7: VH1 + VL4 (antibody, V domains shown)
VH: QVQLVQSGAEVKKPGSSVKVSCKASGYAFSNFWMNWVRQAPGQGLEWMGQIYPGDGDTNYNGKFKGRVTITADKSTSTAYMELSSLRSEDTAVYYCARSYYRSAWFAYWGQGTLVTVSS
VL: AIQLTQSPSSLSASVGDRVTITCRASQSIGTSIHWYQQKPGKAPKLLIYYASESISGVPSRFSGSGSGTDFTLTISSLQPEDFATYYCQQSNNWPLTFGGGTKVEIK
Take B7: in the assay with MUC1-ECD [1], the Kd was determined as 7.13 nM, the koff came out at 0.00315 s⁻¹ and the kon was determined as 442000 M⁻¹ s⁻¹.

Values taken from patent US20230265208A1 (Dana-Farber, published 2023).
